{"source": "patent US20160289283A1", "test_in_all_cases": "cell-based or functional assay", "key": {"[1]": {"target": "human Y1 receptor (human) (UniProt P25929)", "sequence (P25929 whole entry)": "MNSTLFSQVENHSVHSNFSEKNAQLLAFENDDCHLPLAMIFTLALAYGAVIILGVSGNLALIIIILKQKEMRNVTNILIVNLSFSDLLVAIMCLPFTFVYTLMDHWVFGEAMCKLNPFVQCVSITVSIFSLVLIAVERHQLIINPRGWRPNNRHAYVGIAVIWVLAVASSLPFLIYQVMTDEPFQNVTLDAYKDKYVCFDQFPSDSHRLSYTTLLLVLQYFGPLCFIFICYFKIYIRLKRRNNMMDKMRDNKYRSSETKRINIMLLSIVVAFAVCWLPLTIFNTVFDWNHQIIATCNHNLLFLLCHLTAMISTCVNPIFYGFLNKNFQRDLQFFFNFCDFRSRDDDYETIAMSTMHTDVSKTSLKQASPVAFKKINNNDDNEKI"}, "[2]": {"target": "human Y4 receptor (human) (UniProt P50391)", "sequence (P50391 whole entry)": "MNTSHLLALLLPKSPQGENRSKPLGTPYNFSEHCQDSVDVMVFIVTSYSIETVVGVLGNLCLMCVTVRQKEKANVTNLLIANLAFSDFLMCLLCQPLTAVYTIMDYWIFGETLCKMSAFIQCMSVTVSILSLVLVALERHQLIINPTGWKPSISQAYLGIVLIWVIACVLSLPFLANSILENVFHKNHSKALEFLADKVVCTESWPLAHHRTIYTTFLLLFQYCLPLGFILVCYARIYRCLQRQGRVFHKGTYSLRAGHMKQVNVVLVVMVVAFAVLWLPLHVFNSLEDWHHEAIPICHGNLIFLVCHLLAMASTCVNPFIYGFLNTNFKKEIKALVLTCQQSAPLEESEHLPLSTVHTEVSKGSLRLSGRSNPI"}, "[3]": {"target": "human Y2 receptor (human) (UniProt P49146)", "sequence (P49146 whole entry)": "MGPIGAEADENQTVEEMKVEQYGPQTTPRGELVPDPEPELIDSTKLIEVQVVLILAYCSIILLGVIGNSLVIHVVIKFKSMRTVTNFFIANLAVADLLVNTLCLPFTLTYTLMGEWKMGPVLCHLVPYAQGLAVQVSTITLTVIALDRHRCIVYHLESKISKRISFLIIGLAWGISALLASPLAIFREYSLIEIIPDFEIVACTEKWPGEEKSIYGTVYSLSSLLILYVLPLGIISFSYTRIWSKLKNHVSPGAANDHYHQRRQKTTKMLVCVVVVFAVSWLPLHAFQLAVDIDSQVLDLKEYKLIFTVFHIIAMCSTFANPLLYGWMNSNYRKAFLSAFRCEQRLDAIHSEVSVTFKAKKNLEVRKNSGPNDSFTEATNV"}}, "data": [{"substance": "4-N{alpha}-(hexanoyl)-7-N{Epsilon}-2-[2-[2-[[2-[2-[2-[[(4S)-4-carboxy-4-(16-sulfohexadecanoylamino)butanoyl]amino]ethoxy]ethoxy]acetyl]amino]ethoxy]-ethoxy]acetyl]-[Arg4,Lys7,Gln18,Trp30,NMeArg35]hPYY(4-36) (peptide)", "values": [{"measurement": "EC50, Actone functional potency assay", "setting": "[1]", "result": "> 1000", "unit": "nM"}]}, {"substance": "7-N{Epsilon}-[2-[2-[2-[[2-[2-[2-[[2-[2-[2-[[2-[2-[2-[4-[16-(1H-tetrazol-5- yl)-hexadecanoylsulfamoyl]butanoylamino]ethoxy]ethoxy]acetyl]amino]ethoxy]-ethoxy]acetyl]amino]ethoxy]ethoxy]acetyl]amino]ethoxy]ethoxy]acetyl]-[Lys7,Gln18,Trp30,NMeArg35]hPYY(3-36) (peptide)", "values": [{"measurement": "EC50, Actone functional potency assay", "setting": "[1]", "result": "> 1000", "unit": "nM"}]}, {"substance": "7-N{Epsilon}-[2-[2-[2-[[2-[2-[2-[[(4S)-4-carboxy-4-(16-sulfohexadecanoylamino)-butanoyl]amino]ethoxy]ethoxy]acetyl]amino]ethoxy]ethoxy]acetyl]-[Lys7,Gln18,Trp30,NMeArg35]hPYY(3-36) (peptide)", "values": [{"measurement": "EC50, Actone functional potency assay", "setting": "[1]", "result": "> 1000", "unit": "nM"}]}, {"substance": "4-N{alpha}-(3-Methylbutanoyl)-7-N{Epsilon}-[2-[2-[2-[[2-[2-[2-[[(4S)-4-carboxy-4-[[(4S)-4-carboxy-4-(16-sulfohexadecanoylamino)butanoyl]amino]butanoyl]amino]-ethoxy]ethoxy]acetyl]amino]ethoxy]ethoxy]acetyl]-[Lys7,Gln18,Trp30,NMeArg35]hPYY(4-36) (peptide)", "values": [{"measurement": "EC50, Actone functional potency assay", "setting": "[2]", "result": "> 1000", "unit": "nM"}]}, {"substance": "7-N{Epsilon}-[2-[2-[2-[[2-[2-[2-[[(4S)-4-carboxy-4-(16-sulfohexadecanoylamino)-butanoyl]amino]ethoxy]ethoxy]acetyl]amino]ethoxy]ethoxy]acetyl]-[Arg4,Lys7,Gln18,Trp30]hPYY(3-36) (peptide)", "values": [{"measurement": "EC50, Actone functional potency assay", "setting": "[1]", "result": "> 1000", "unit": "nM"}, {"measurement": "EC50, Actone functional potency assay", "setting": "[3]", "result": 1, "unit": "nM"}, {"measurement": "EC50, Actone functional potency assay", "setting": "[2]", "result": "> 1000", "unit": "nM"}]}]}
